Experiments:
[1] = target: CHN-1 (C. elegans); assay: cell-based or functional assay
[2] = target: T1, M1 linked linear ubiquitin (di-Ub) (UniProt P0CG48 1-76; P0CG48 1-76); assay: SPR; Biacore S200, 25°C; His-tagged UFD-2 or His-tagged Ufd2p immobilised on NTA chips at 20 μg/ml; single-cycle kinetics with M1 diUb at 0, 100, 200, 500, 1,000 and 2,000 nM; 10 mM HEPES, 150 mM NaCl, 0.05% Tween 20, 0.1% BSA, 50 μM EDTA, pH 8.0; details: both partners purified
T1 construct: ubiquitin, first (distal) unit of the M1-linked dimer; ubiquitin, second (proximal) unit, joined by its M1 to G76 of the first unit; also called linear di-Ub; M1 diUb conjugates; source: bought: UbiQ (UbiQ-L01)

Sequence of CHN-1 (C. elegans) (main, as listed by the source): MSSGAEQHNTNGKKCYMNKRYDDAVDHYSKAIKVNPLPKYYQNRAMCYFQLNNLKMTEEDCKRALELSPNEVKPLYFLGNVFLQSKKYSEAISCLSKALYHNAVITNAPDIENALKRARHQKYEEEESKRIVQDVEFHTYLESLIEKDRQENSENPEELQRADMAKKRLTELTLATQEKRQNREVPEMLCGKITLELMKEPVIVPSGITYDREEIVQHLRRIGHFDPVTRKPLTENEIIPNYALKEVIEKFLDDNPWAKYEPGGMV

Row | Binder | discharge of Ub-charged UBE2D1 by CHN-1, alone or mixed with UFD-2^P951A [1] [fold] | binding result [2]
1 | 6xHis::UFD-2^P951A (enzyme, C. elegans, UniProt Q09349 1-984, looked up) MIEDEKAGLQPMDISDASVFFFQADVESKDFLTSLFDCEGKSDDRMLRYADAIIDVQNLNFDVSPQCLQSNIAEIITKFVLLSQDGSRRGLSRSFNFIDPDIIAGCREEDAIEFLLINFVRCHHELGKSGTSNCYKKTLESTRKAVFSVFVMIQRGYLESQLRSQHASLVFTKRLLEDTVSNVFLRTLVEYLASTDECDEDAITETFNPIFGILRSGIICQRFEDNKDEIVRQILRVMNLLLSIRLPSNGPRPLSNLLVNREDFLPTPSEKIQGREFGLMSFLGPFFSYGLESSARRPNHRVFVDCEEDARKYDGSVNTEQKLYFQRMDPIRTMLHQLMLPLASDQGSRNKTLRWIATIISTNDIRTRSHYDPSDVLCDHYMTNFLSVMYMFSEKIDLSKIIVDYPFLPSSLINISKETRLKMDESGAVAFASQFADRPDEYHFSTVCFFLTIAAQRLVIPPLMNQISEYSRHLKELKHKINALKEKLNTVSGFERAEVEKKLNYETEHWKLMSRHLLCVKTQAQDPALMASSMDFVDKQMKFILNLLCDNLDLLGDDSQLPTEVSQMFCALPEYFLEDALDFYIFAISNGMKLLMERNADWISRLTVLFTQYHYIKSPFLVSKLVRVLSSIQPPLWFNVVRLRMAQENLLMCMIKFYSDFEDNGDFYEKFNVRGNIQYMLEKMEEDMFYKGKFMDMARECGAEFIRFVNMVINDATWCIDESLSGLKSIHDVEKKMANKVEWDNTDQEIRNQDLGVYEEAKRKVKGWLGTAKSNLKLLLSITVNSPEPFRTPVLGERLAAMLNHNLSQLIGSKASELKVKDPRSYGWEPREFVSLLISIYLKLNMPAFVKYIAYDERTYSPEFFHNAIECMRKNSIVGFSQLESFEHLAEDVKKEYEAKAELEEEYDDVPEEFKDPIMDAIMVDPVKLPSGHVMDRAVIERHLLSTPNNAFNRAPLSHNELSPDSELKAKIQEWICQKRNSKK | ≥ 2 | 
2 | 6xHis::Ufd2p (enzyme, S. cerevisiae, UniProt P54860 1-961, looked up, Ufd2p, S. cerevisiae; from pET28a-6xHis::Ufd2p; The plasmid is from Liu et al (2017); also called S. cerevisiae Ufd2p; His-tagged Ufd2p; source: bacterial expression system, purified; not shown: 6xHis, N-terminal, kept) MTAIEDILQITTDPSDTRGYSLLKSEEVPQGSTLGVDFIDTLLLYQLTENEKLDKPFEYLNDCFRRNQQQKRITKNKPNAESLHSTFQEIDRLVIGYGVVALQIENFCMNGAFINYITGIVSNVNSYTDFLSQIIQRAILEGTALDLLNAVFPTLLEYCNKHVSHFDLNESVIYNNVLTIFELFVTFKPIAEIFTKIDGFFADYSCKPQDFERKTILGPILSLSPIEAAVAIRNYGDNLLRSKQQTAMIHESLQAEHKVVIDRLFFIVDKLVRGSLNSRTDMISYFAHIANKNHLRRADHPPFKELSSNGFMSNITLLLVRFSQPFLDISYKKIDKIDANYFNNPSLFIDLSGETRLNSDFKEADAFYDKNRKTADSKPNFISDCFFLTLTYLHYGLGGTLSFEEKMGSEIKALKEEIEKVKKIAANHDVFARFITAQLSKMEKALKTTESLRFALQGFFAHRSLQLEVFDFICGASTFLIRVVDPEHEFPFKQIKLPLIPDQIGVENVDNADFLRAHAPVPFKYYPEFVVEGPVNYSLYISKYQTSPIFRNPRLGSFVEFTTMVLRCPELVSNPHLKGKLVQLLSVGAMPLTDNSPGFMMDIFEHDELVNKNLLYALLDFYVIVEKTGSSSQFYDKFNSRYSISIILEELYYKIPSYKNQLIWQSQNNADFFVRFVARMLNDLTFLLDEGLSNLAEVHNIQNELDNRARGAPPTREEEDKELQTRLASASRQAKSSCGLADKSMKLFEIYSKDIPAAFVTPEIVYRLASMLNYNLESLVGPKCGELKVKDPQSYSFNPKDLLKALTTVYINLSEQSEFISAVAKDERSFNRNLFVRAVDILGRKTGLASPEFIEKLLNFANKAEEQRKADEEEDLEYGDVPDEFLDPLMYTIMKDPVILPASKMNIDRSTIKAHLLSDSTDPFNRMPLKLEDVTPNEELRQKILCFKKQKKEEAKHKASE |  | binds

— publication PMC9340540, “A heterotypic assembly mechanism regulates CHIP E3 ligase activity” (The EMBO Journal, 2022)
